Assay: soluble on expression in E. coli; label from the status in PepcDB or PDB records

Sequence | soluble on expression in E. coli
GMGQQESTLGGAAGEPRSRGHAAGTSGGPGDHLHATPGMFVQHSTAIFSDRYKGQRVLGKGSFGEVILCKDKITGQECAVKVISKRQVKQKTDKESLLREVQLLKQLDHPNIMKLYEFFEDKGYFYLVGEVYTGGELFDEIISRKRFSEVDAARIIRQVLSGITYMHKNKIVHRDLKPENLLLESKSKDANIRIIDFGLSTHFEASKKMKDKIGTAYYIAPEVLHGTYDEKCDVWSTGVILYILLSGCPPFNGANEYDILKKVEKGKYTFELPQWKKVSESAKDLIRKMLTYVPSMRISARDALDHEWIQTYTKEQISVDVPSLDNAILNIRQFQGTQKLAQAALLYMGSKLTSQDETKELTAIFHKMDKNGDGQLDRAELIEGYKELMRMKGQDASMLDASAVEHEVDQVLDAVDFDKNGYIEYSEFVTVAMDRKTLLSRERLERAFRMFDSDNSGKISSTELATIFGVSDVDSETWKSVLSEVDKNNDGEVDFDEFQQMLLKLCGN | soluble
MSLDFSEPLLGFEPRDTEIGRRLEVWKAMQALTGPKNLLSLSPDPEMNSSSLLSTLSPAAWGRAEESVVRTKRMVGPVEVKEEENFFCGRPEKSHAKLVFVSTSGGSLWNLQAIHSMCRIEQEQIRSHISFGALCQRSAANECCPSWSLGNYLAVLSNRSSCQDTTQADTDRTLALLRFCATFYHRGVLVPACVGSSQDKPPFCAQVPAKCTGSNVVYEFLHYLLDRDFLSPQTADYQVPSLKFALLFLPIIKTSSLLDIYLDGLGDPIKVSDNYTSISGMDLGLKPRLLKYYLAEDTEGHHHHHH | not soluble
MSLATTHLDVCAVVPAAGFGRRMQTECPKQYLSIGNQTILEHSVHALLAHPRVKRVVIAISPGDSRFAQLPLANHPQITVVDGGDERADSVLAGLKAAGDAQWVLVHDAARPCLHQDDLARLLALSETSRTGGILAAPVRDTMKRAEPGKNAIAHTVDRNGLWHALTPQFFPRELLHDCLTRALNEGATITDEASALEYCGFHPQLVEGRADNIKVTRPEDLALAEFYLTRTIHQENT | soluble
MRYPESLLKLTRALSRLPGIGPKTAQRLALHLAFHKEEAEALAEALEGIKRVRACRECGNLAEGELCPICQDEDRDRSLLAVVESVADLYALERSGEFRGLYHVLGGALNPLEGIGPKELNLEGLFRRLEGVEEVVLATSMTVEGEATALYLAEELKKRGVRVTRPAYGLPVGGSLEYADEVTLGRALEGRRPV | soluble
MGSDKIHHHHHHMIDKLEFFLALARERHFGRAAEECGVTQPTLSAAIRQLEEQLGVILVNRGSRFQGLTPEGQRVLEWARRIVSDSRTMREEMRAARKGLSGHMRLAAVPTTLSMVPLITAPFQEKHPDVTFSVLSTTSLQILALLENLEIDAGLTYLENEPLGRVTSVPLQIEQYHLVTAAGTALSDRESVTWKEVSDIRLCLLTADMQNRRIINQHFAEAGAVPKPTLESNSMIVLFSHVRTGRWASIMPYNVAKSFGFHEDIRMIPIVDPDVRHTVGLVATYREPFTPLVSALLHEARILGERNQVQ | not soluble
MGKGDPNKPRGKMSSYAFFVQTCREEHKKKHPDSSVNFAEFSKKCSERWKTMSAKEKSKFEDLAKSDKARYDREMKNYVPPKGDKKGKKKDPNAPKRPPSAFFLFCSEHRPKIKSEHPGLSIGDTAKKLGEMWSEQSAKDKQPYEQKAAKLKEKYEKDIAAYRAKGKSEVGKKGPGRPTGSKKKNEPEDEEEEEEEEDDEDEEEEDEDEE | soluble
MHHHHHHSSGRENLYFQGIPTISELKKDRIIPHVFPNDKIDLNVDLFISFKAGKEVNHGNVLDIAGTGSVPRNIKFSEEPPDGYCFVLFMVDPDYPSRLRPDGKEYIHWVVSGIKTKELIKGTQKNCVTILPYVGPSIKKGTGLHRISFIISLIKEEDKDNITGLPHYKGEKYITRVKFNNYESVHNIAQINNMKIVGYNWCQIE | soluble
MSTSVAENKALSASGDVNASDASVPPELLTRHPLQNRWALWYLKADRNKEWEDCLKMVSLFDTVEDFWSLYNHIQSAGGLNWGSDYYLFKEGIKPMWEDVNNVQGGRWLVVVDKQRRTQLLDHYWLELLMAIVGEQFDEYGDYICGAVVNVRQKGDKVSLWTRDATRDDVNLRIGQVLKQKLSIPDTEILRYEVHKDSSARTSSTVKPRICLPAKDPAPVKEKGPAATTSPSNPGTEATGTSPATPTP | not soluble
MNEKVFRDPVHNYIHVNNQIIYDLINTKEFQRLRRIKQLGTSSYTFHGGEHS | soluble
THANIQGLVKHVDYMAFSDQDTFLSVSNYAFDAFTFDFYASMLNAARLIIADEHTLLDTERLTDLILQENVNVMFATTALFNLLTDAGEDWMKGLRCILFGGERASVPHVRKALRIMGPGKLINCYGPTEGTVFATAHVVHDLPDSISSLPIGKPISN | not soluble
MVKRREAFEIEGKRVIAGSQMGIKLPAAKLYTDTQLDIHVEVFHGVKPGPTLLVCAAIHGDELNGIEICRRLLGRVNPKNLAGTLIVVPIVNVFGFIQQSRYLPDRRDLNRCFPGSSKGALASRLANLFATQLLVHATHVIDLHTGAIHRDNLPQIRCDTNDETMLAMANAFGAPLIMHSKARSVSMRGYANQQGIPCILYEAGEALRFSELAIKSGLKGVLNVMRSLGMLKGRVSNKIASVSAIRSYWIRSESDGLVNMKLKLGQRVNKGYIIAHIVSPHGGDSVAIRAPTDGIIIGISNIPVTNEGEGMFHIAQFEGDEIEIANEQLDEFLMEYA | not soluble
MAEVKGMTVFNTEEVNTKKQPMFFGKPLGVQRYDNFKYPSFENLTKQQLGYFWRPEEVSLQKDRGDYQTLRPEQKHIYTSNLKYQIMLDSVQGRAPGMAFLPYCSLPELEACMEVWSFMEMIHSRSYTYVIKNVYADPSEVFDKILSDDRILSRAASVTESYDDFINEAQGWGQSNLWRDMDKSLDTSLPVLEMKEVKRKLYRAVTNVNILEGIRFYVSFACSFAFGELKVMEGSAKIISLIARDENQHLAITQNILNNWRKGDDPEMVEIMKEEEQWTYQMFEKCVNEEKMWAEYLFKDGSMIGLNDKLLHQYVEWVANRRMRSIGMKPVYDIAAKNNPLPWTEHWISSKGLQVAPQETEVESYIVGGIKQDVKKDTFAGFKL | soluble
MQANSEEYCELCGSQIRGKGITVSYEGSIITVCNSCYDRIRKHAVIVKADSKKSETRKKATLKPPKMENAELEIVTDYYKIIKTAREQLGISQQQLAQKLKVSENIVKRFESGKLKPTISQARQLEKILGIKLVTPLENNEESEKEFDDTGLTLGDVVNIKEGKK | not soluble
MSLKKYLGIIVDAVSRRQFKGEITVENGKILRVEEKEHDHERYILPGLVDAHVHIESSMTVPSVFARMAVAKGTVAVVSDPHEIANVMGEEGIDFMLGDSKRSPLKVFFGVPSCVPATPFESAGSVLDAEAVDRLLAREDLYYLSEMMNFPGVVLGFPDVMAKLESAKKCGKVIDGHAPGLRGADLETYIGVGISTDHESFTYEEAVEKIKLGMKILIREGSSARNFETLYSLIDEYPEAVMLCTDDSHPDTLIYEGHIDKLIRRGQEKGLDIFNLIRAAVINPVEHYGLNVGLLREGDPADFITVDDLKSFNVLSTFIDGECVYENGEGHHHHHH | soluble
VEVLLGGDDGSLAFLPGDFSVASGEEIVFCNNAGFPHNVVFDEDEIPSGVDAAKISMSEEDLLNAPGECYKVTLTEKGTYKFYCSPHQGAGMVGKVTVN | soluble
MGHHHHHHSHMAAEPVEDNCINFVAMKFIDNTLYFIAEDDENLESDYFGKLESKLSVIRNLNNQVLFIDQGNRPLFEDMTDSDCRDNAPRTIFIISMYKDSQPRGMAVTISVKCEKISTLSCENKIISFKEVNPPDNIKDTKSDIIFFQRSVPGHDNKMQFESSSYEGYFLTCEKERDLFKLILKKEDELGDRSIMFTVQNED | soluble
MQFYQPPAQQHLARSTPPPNFAQPYGMGMRPHEEETRQIMNLDSQQTHSSSPTSSWNQPYGQMSNPYQQRGPSLYAPPGPPVMHQNGPPGVVPTSNPYYQPPVPPQHHHMQPQAPMMSPGMHGQQQQQPYYNTQSPLTGTPPSMSYGTPQIPAPPPTSNGSAPMFNFSKPRNSNEGSLTNGGGGAAHRRKKHNDLSSPRYSSNSNEDVDGSVFPDMADFPLLDVVQSKAKKDAGRKPCRPHLCEQSRMLISRVCHFHREFIKRLPARHPLVNSPFSKPDQWTSQIMGISLATVRKCIDMAVDEEVFTRCTDKNLVNLTPSERAEREELLSKLSTVFEDEKSLGAGTAGMTIAEYSPRRSYSNTLLRQSTDDKSSTSSYNANGGEYGGSTETTLLNLDDHSNSSKDYGMTPTTPAAPVASSVTSDLGGGGGQVFEEIGAIGGGMSTESSLDDKSAVKIPKRGRPCKAPGTTATNKSTKRKESQDGGQEVGGPVEDKDDHEKKTEDEDETNEETEKIEVQQADQAEREDDAASSEGTNRSETATPELATDTTAVAKKTRSAAARRKNTKTVDDEFAGATKKKRGSVTAATAGIGGDDENSDHKMVTRARSRQP | not soluble
MEDSCVLRGVMINKDVTHPRMRRYIKNPRIVLLDSSLEYKKGESQTDIEITREEDFTRILQMEEEYIHQLCEDIIQLKPDVVITEKGISDLAQHYLMRANVTAIRRVRKTDNNRIARACGARIVSRPEELREDDVGTGAGLLEIKKIGDEYFTFITDCKDPKACTILLRGASHHHHHH | soluble
MSNSSKDADSNLKSTVKPRYLILGSGSIGFALAKELRESNKLVIIVDKDEAKIETLREEGFEAILGDISDPELVNNIDLKNVVAILFLSSNNEANRKGIENFKKVVNPDIQIFSRASDIINKEKMEDLGSDYVFMPSKLVASSLSRSLERAESVHRGNRLARWLKGIRDKKLAIVIHDNPDPDAISSGLALKEIAKSLGVEASILYHGRIGHQENKAFVNLLGIDLGKMEEHDLKDFDEIALIDCSIPGVNNMVPPNSYVGIVIDHHPPGETEIKAEYIDIRPNFGATATIMTKYLQQLNINISKTLATALLYGIRTDTQDFKRKTDPADLSAASYLYPLSNHGILDQLEQPSMAIETLEVLGEAIRNRQVLGSYLLSNVGNIRDRDTLPQAADYLLSLEGISTTVVFGVSEDRIYISGRSTDIRVNLGEIMRQAFGEDAGGHANAAGAQIPLGVFSATKDRQTLLRLVNEAVVKRFLSAVGVESTGE | soluble
MLRDLRETDVKAICDINQEALGYTFSPEETASQLARLSQDSHHFLLGYEDAANHVLLGYVHAEVYESLYSKAGFNILALAVSPQAQGQGIGKSLLQGLEEEAKRCGYGFIRLNSANHRLGAHAFYEKVGYTCDKMQKRFIRIC | not soluble
MVATAKYGTPVIDGEIDEIWNTTEEIETKAVAMGSLDKNATAKVRVLWDENYLYVLAIVKDPVLNKDNSNPWEQDSVEIFIDENNHKTGYYEDDDAQFRVNYMNEQTFGTGGSPARFKTAVKLIEGGYIVEAAIKWKTIKPTPNTVIGFNIQVNDANEKGQRVGIISWSDPTNNSWRDPSKFGNLRLIK | soluble
MTDLTGILYIVATPIGNLQDITQRALETFAQVDLIAAEDTRHSGLLLSHYGIKKPFFALHDHNEQEKAHILVEKLKQGSNIALISDAGTPLISDPGFHLVRQCREAGIRVVPLPGACAAITALCASGIASDRFCFEGFLPAKSKARKDKLENIAEEDRTLIFYESTHRILDTLEDMQAVLGEERYIVLAREMTKTWETITGNTIKNLREWLLEDPNRTKGEMVLIVEGKPKSDNNDEISPQAVKALELIAEELPLKKAAAIVAELYGYKKNALYQFGLAHLEKLEHHHHHH | soluble
MNAVTEGRKVLLEIADLKVHFEIKDGKQWFWQPPKTLKAVDGVTLRLYEGETLGVVGESGCGKSTFARAIIGLVKATDGHVAWLGKELLGMKPDEWRAVRSDIQMIFQDPLASLNPRMTIGEIIAEPLRTYHPKMSRQEVRERVKAMMLKVGLLPNLINRYPHEFSGGQCQRIGIARALILEPKLIICDEPVSALDVSIQAQVVNLLQQLQREMGLSLIFIAHDLAVVKHISDRVLVMYLGHAVELGTYDEVYHNPLHPYTRALMSAVPIPDPDLEKNKTIQLLEGELPSPINPPSGCVFRTRCPIAGPECAKTRPVLEGSFRHAVSCLKVDPL | not soluble

— the DeepSol protein solubility set
